# The DeepSol protein solubility set
# Experiment: soluble on expression in E. coli; label from the status in PepcDB or PDB records
row,Sequence,soluble on expression in E. coli
1,MDGMTPNRLLDLAIQSLLSNESAAIQALEDIPRELFVPLFIAAFKGGHKNTLSAMVKVWPFYCLHMGSLRILEPQHELLKAIIENLPVHPAQTSAFWGPKLRILDLRQDTNCRITCPEVSTKSPSCFHSCIYSDSSITKIERQLCFINSGCKTLLPRPVELILDLFLDGSLIEKDFLILLMHKIEESLGFLHVCCRDLQIDKPCKCKCTLKFLDLQCVDQLSVDRGSLSDITSILGQMGHLESLTLSNVTFRSLRGKVFKIFLSHLQRMENLKELSFSSFRLKNHLDRVLRVLPPDLDFLYLPFCGLSYRDIKFMSQSPHVTHLKLLNLSNNLMYWDDFGPFHSVLSNLSGTLQHLEINHCHISDSAISALIPALIRCTHLRVLGFACNPITMPMLVNIMHHLTPMMELKYVIYPIPVHCYERWHFHGSLDRGKLAIKVLGLPVQAKYPRNGWSKAISSSDENIPKAQTDTIPTCSWSWSLSRLQSAVQPPRDNLGRWKDTYAERAGNAVHGAV,not soluble
2,SRVDKFSKSDIIVSPSILSANFSKLGEQVKAIEQAGCDWIHVDVMDGRFVPNITIGPLVVDSLRPITDLPLDVHLMIVEPDQRVPDFIKAGADIVSVHCEQSSTIHLHRTINQIKSLGAKAGVVLNPGTPLTAIEYVLDAVDLVLIMSVNPGFGGQSFIESQVKKISDLRKICAERGLNPWIEVDGGVGPKNAYKVIEAGANALVAGSAVFGAPDYAEAIKGIKTSKRPE,soluble
3,MGSDKIHHHHHHMSIEIRQVNNLRKKRQFFQYNYQLYKDDPYWVSWPVANLVKMFDPEECGFYEHGILEAWLAYQNGKIVGRIAGSIDGTYNQTYGVQTAFFGFYECIDDQDVSKILFEQVENWAQSYGMTQLLGPFSLSPIYGAGMLIAGFDDSPYVAMPYNRSYYPNQLESSGFKKAKDYNAFRIKGELTIPEFLTKNAQRWRNKRITYRQLNPDQLAQESDLVCDLYNDGFAGQWGYTYIERSEFYQLVLDWIQVIDPRLFLFVLIGDNPVGFGMLVPDVFQILHQTKTLPGLLRYLGRRIFTFGRENEITRYRLDSLCIRKQYQSLGLGVLLWCEIMQQYLNSNYTEIEFSPILEDNTMAQTLLLKLGAERSKVYRVFEKSWCN,not soluble
4,MIGDFWKESNGLATANDMDKNLAYMYTMKKKARGQLLFTKEKLAEYGSKVGLFPGVKDWFRRIRQYGADREVIIEHYIISSGLKEMIEGTSIAKDFKEIYATSFYFDDDGVAVWPAQVVNYTNKTQFLFRISKGVLNVNDEAVNDSFAPDEIRVPFHNMIYIGDSDTDIPCMKLVNSHGGYSIGVFNPKERNEEKAKKRVYKMIRDNRIGYF,not soluble
5,MLFHDIHDRAVKALPQILDRLIADGYQFAGWNGRDFSVARAPSATAAATVTTGYAKSWAIVIGIDDYARWPKLEYAANDAQAIANTLTGPLGFPSSQVIVLKNAEATRNNILAAFHDRLGDGRAQTNDRVFVFFAGHGATRRLASGRDLGYIIPVDSDPEHLANDAIAMSDLQNIAESLQAKHVLFVMDACYSGLGLTRGGPSSSAYLRENARRIARQMLTAGGADQQVADSGPNGHSVFTWVVLQALAGKGDLNGDGLITGTELAAYVAPAVSAVSAQTPAFGSLPGSQGGEFVFQVPSGEEFLTADTAQLSAAAIALNGRVDAVRPAAVSLEHHHHHH,soluble
6,VILKEEFRGVIIKQGCLLKQGHRRKNWKVRKFILREDPAYLHYYDPAGAEDPLGAIHLRGCVVTSVESNSNGRKSEEENLFEIITADEVHYFLQAATPKERTEWIKAIQMASRTGK,soluble
7,MGHHHHHHSHMEQTEVLKPRTLADLIRILHQLFAGDEVNVEEVQAIMEAYESDPIEWAMYAKFDQYRYTRNLVDQGNGKFNLMILCWGEGHGSSIHDHTNSHCFLKMLQGNLKETLFAWPDKKSNEMVKKSERVLRENQCAYINDSIGLHRVENISHTEPAVSLHLYSPPFDTCHAFDQRTGHKNKVTMTFHSKFGIRTPNATSGSLENN,not soluble
8,MSLQPVPDAGPWGDYLCDSPWALINSSIYAMKEIEPEPDFILWTGDDTPHVPDEKLGEAAVLEIVERLTKLIREVFPDTKVYAALGNHDFHPKNQFPAGSNNIYNQIAELWKPWLSNESIALFKKGAFYCEKLPGPSGAGRIVVLNTNLYYTSNALTADMADPGQQFQWLEDVLTDASKAGDMVYIVGHVPPGFFEKTQNKAWFREGFNEKYLKVVRKHHRVIAGQFFGHHHTDSFRMLYDDAGVPISAMFITPGVTPWKTTLPGVVNGANNPAIRVFEYDRATLSLKEGHHHHHH,not soluble
9,MAHHHHHHMHLLHDFKNIYCLLPSDYKNFLQKIRTLPCSVNKNMQGEKEIYILKKYMKMLNYEFITFIHGPYVLHICDPFYKIYLEWENGWKLYPLYQQNAERHFRENKITHLRKEGFSEILICHDAFANCPSDEEKMNYLSSVLQRTKFSKCSSIICGPAAIAPPPVVSPDIYL,not soluble
10,KGTVCVTNLSTGSKRLGAIAPNSTMLAVRNSADCLLALQQNHADAVISDDAILSGMIAQDPFTHIVGDPIATEQYAVAFAKPRTGRDTAPMIRQVNSTFERIFRDGTWTRTYNHWFGAYLAPQVHPAVHYREER,not soluble
11,MQSKLITELTDLETAFHIRKEVFVKEQGVPLTDEFDTFDEIGEQCKHILVYYHELPVGTGRIRFVDGVGKLERICILKDYRTYGLGKVIIQTLEEIARNEQATKVKLHGQTQAEGFYKKLGYETSSDIFMEDGIPHILMTKMLS,not soluble
12,MSWGTELWDQFDNLEKHTQWGIDILEKYIKFVKERTEIELSYAKQLRNLSKKYQPKKNSKEEEEYKYTSCKAFISNLNEMNDYAGQHEVISENMASQIIVDLARYVQELKQERKSNFHDGRKAQQHIETCWKQLESSKRRFERDCKEADRAQQYFEKMDADINVTKADVEKARQQAQIRHQMAEDSKADYSSILQKFNHEQHEYYHTHIPNIFQKIQEMEERRIVRMGESMKTYAEVDRQVIPIIGKCLDGIVKAAESIDQKNDSQLVIEAYKSGFEPPGDIEFEDYTQPMKRTVSDNSLSNSRGEGKPDLKFGGKSKGKLWPFIKKNKLMSLLTSPHQPPPPPPASASPSAVPNGPQSPKQQKEPLSHRFNEFMTSKPKIHCFRSLKRGLSLKLGATPEDFSNLPPEQRRKKLQQKVDELNKEIQKEMDQRDAITKMKDVYLKNPQMGDPASLDHKLAEVSQNIEKLRVETQKFEAWLAEVEGRLPARSEQARRQSGLYDSQNPPTVNNCAQDRESPDGSYTEEQSQESEMKVLATDFDDEFDDEEPLPAIGTCKALYTFEGQNEGTISVVEGETLYVIEEDKGDGWTRIRRNEDEEGYVPTSYVEVCLDKNAKDS,soluble
13,MDCDIASYHVDSFDFLVSKGCQFAAQAVPAEKFRLKNGDAVTMKFTSAQLHKPTLDTGAKLTSDTLPLLPAECRQRGLTYAGNLKVGIDVHVNGSRLDIIEIILGKVPIMLRSEGCHLRGMSRKELVVAGEEPIEKGGYFIVNGSEKVIRLLIANRRNFPIAIIRKTFKEKGKLFSEFGVMMRSVKENHTAVMMTLHYLDTGTMQLALQFRREIFYVPLMYIVKALTDKNDAVISAGFKRGRNQDQFYSSCILNMLAQCQEEEILNQEAAIRAIGSRFRVAVSDRVAPWEDDLEAGRFIIRECVLIHLDSDEEKFHTLAYMTQKLIALVKGECAPETPDNPQFQEASVSGHILLLILRERMENIIGMVRRKLEYMSSRKDFILTSAAILKALGNHTGGEITRGMAYFLATGNLVTRVGLALQQESGFSVIAERINQLRFVSHFRAIHRGAFFMEMRTTDVRKLRPEAWGFICPVHTPDGAPCGLLNHVTASCRIVTDLSDNSNVPSLLAELGMYTHKTVALAPPGEELYPVLMNGRFLGYVPITKAASIERYLRCAKVAKDARIPYTSEIALVRRSTDIKNIQTQYPGIYILSDAGRLIRPVRNLAMDAVEHIGTFEQVYLSVVLDPEEAEPGVTMHQELHPSCLFSFAGNLIPFPDHNQSPRNVYQCQMGKQTMGTAVHAWHSRADNKMYRLQFPQQPMLKLEAYEKYEMDEYPLGTNACVAVISYTGYDMEDAMTINKASYQRGFAHGTVIKVERINLVTERERKTIFYRNPREEIKTVGPDGLPIPGRRYFLDEVYYVTFNMETGDFRTHKFHYAEPAYCGLVRIVEQGEGDSGAKHALIQWRIERNPIIGDKFASRHGQKGINSFLWPVESLPFSETGMVPDIIFNPHGFPSRMTIGMMIESMAGKAAATHGENYDASPFVFNEDNTAINHFGELLTKAGYNYYGNETFYSGVDGRQMEMQIFFGIVYYQRLRHMIADKFQVRATGPIDPITHQPVKGRKKGGGIRFGEMERDAIIAHGTSFVLQDRLLNCSDRDVAYACRRCGSLLSVLMSSRAGSHLLKKKRKDDEPLDYTETQRCRTCDKDDQVFLLQVPRVFRYLTAELAAMNVKIKLGIEHPSKVTGS,not soluble
14,MSLNDSILEPKHRGNVREIAAIDLGSNSFHMIVARIVNGSIQVLSRLKQKVKLAEGLDENAVLNQEAITRGVNCLALFAERLQGFPMENVNVVGTYTLRRAVNNDEFLRQAAKVFPYPINIISGQTEAKTIYAGVCHTQPEKGRKLVIDIGGGSTEMIIGDDFTPLMAESRHMGCVSFATQFFTDGIISPENFQRARQSAVNKIEDLGLEYRKLGWQSVLGSSGTIKTVAQVIATNLDPNGTITAERLNALIEQTLQAKHFTELNINGLNQDRVDVFVPGLAILSAVFDVFHIQQMRYSDGALREGVIYSLEKNFQVADIRASTAEGHHHHHH,soluble
15,MADWVTGKVTKVQNWTDALFSLTVHAPINPFTAGQFTKLGLEIDGERVQRAYSYVNAPDNPNLEFYLVTVPQGKLSPRLAALKPGDEVQVVSDASGFFVLDEVPDCETLWMLATGTAIGPYLSILQYGQDVARFKNLVLVHAARFAADLSYLPLMLELQQRYEGKLRIQTVVSRENVPGSLTGRVPALIENGELEKAVGLPMDKETSHVMLCGNPQMVRDTQQLLKETRQMTKHLRRRPGHMTAEHYW,not soluble
16,REKGIVEPSCGVTANAIMKLFLDKDGFSYCFENEQTLSLEQLQERLSCMPECKSFVLRVNDGALGHAYIVDIPKGENSCRPAFLYQSDLGEGVTRKLRFEDWMTHKALTPILLDDICNYFSCMSQNKTDLEQIATLFDIDGNVKMLRKENIQYQKHDNFSFQLFEYDTDNIEKNIEIIKSLCSGAAALEHHHHHH,soluble
17,SRVFLDHNALPDTLKVTYDSFCSNGVTHRNQPRGDCDGVQINVPITFQVKVTATECIQEQSFVIRALGFTDIVTVQVLPQCECRCRDQSRDRSLCHGKGFLECGICRCDTGYIGKNCEHH,soluble
18,NYMGNPWTEYMAKYDIEEVHGSGIRVDLGEDAEVAGTQYRLPSGKCPVFGKGIIIENSNTTFLTPVATGNQYLKDGGFAFPPTEPLMSPMTLDEMRHFYKDNKYVKNLDELTLCSRHAGNMIPDNDKNSNYKYPAVYDDKDKKCHILYIAAQENNGPRYCNKDESKRNSMFCFRPAKDISFQNYTYLSKNVVDNWEKVCPRKNLQNAKFGLWVDGNCEDIPHVNEFPAIDLFECNKLVFELSASDQPKQYEQHLTDYEKIKEGFKNKNASMIKSAFLPTGAFKADRYKSHGKGYNWGNYNTETQKCEIFNVKPTCLINNSSYIATTALSHPIEVE,soluble
19,MKIVIIGSGLAGLSAGYRLCKSDEVIIFEKDPDIGGMSASYSIENEGKKYFIEKYYHHIFRSDSELLALIKELGLEKQMLWLKGKNAYFVDGKNYPMNTPVEILHFSPLSILDLAKLGMLVLRIKLIKDTAPYDRIKAKEWILDTAGKSVYENFFAPLMKSKFGDNAENVSAAWVIGRVKIRSDRGAEGEKLGYMRGGFNSLIEALAGEITANGGEIRTDREVTEIVIKANAVQGVKVNGDFIPCDAVISTAEPAVLDAITGGKLGDLHETLKSIRYQGTACALIGLDRSLMEDGNYWLNIKA,not soluble
20,QQLSMELESARAFNASVLANVAEGILVVDEAGNISFANPAICQLLNASVDQLRGTQVLDYVIEPQVSSWLESGFYQHYRKADTYRVHDAILRTAQGSQLPVALSCAALPAEQKAMVLTVLDMS,not soluble
